Experimental data from US20220064286A1 (Genentech, published 2022).
Numbering of substitutions follows the chain as printed. Names and notes keep the numbering of the source. Read-outs that look alike come from different tables or passages of the source. One block for each binder: values may come before it.

Experiments:
human TIGIT protein [1] = target: T1, human TIGIT protein (human, UniProt Q495A1 22-141, limits assumed); assay: SPR, monovalent affinity
T1 construct: Recombinant protein (Genentech) used in ELISA screening and as SPR analyte; also called TIGIT antigen
T1 sequence: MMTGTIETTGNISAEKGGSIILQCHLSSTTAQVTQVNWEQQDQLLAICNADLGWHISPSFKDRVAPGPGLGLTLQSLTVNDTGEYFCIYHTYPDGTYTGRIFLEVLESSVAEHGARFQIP

[2] = target: T2, cynomolgus monkey (cyno) TIGIT protein (cynomolgus monkey, UniProt A0A7N9I9V4 89-209); assay: SPR, monovalent affinity
human TIGIT protein [3] = target: T1, human TIGIT protein; assay: SPR, captured mAb
From the text: (§1) To prevent unwanted pyroglutamate formation for clones 4.1A4, 4.1 D3, and 7.4A3 (also referred to as 1A4, 1 D3, and 4A3, respectively) and to resolve the issue of unpaired cysteine residues for clones 4.1A4 and 7.4A3, the following optimized anti-TIGIT antibody variants were generated: 4.1A4.C96S.Q1E, 4.1A4.C96Y.Q1E, 4.1 D3.Q1E, 7.4A3.C96S.Q1E, and 7.4A3.C96Y.Q1E (also referred to as 1A4.C96S.Q1E, 1A4.C96Y.Q1E, 1 D3.Q1E, 4A3.C96S.Q1E, and 4A3.C96Y.Q1E, respectively). As described below in Table 2, the affinities of these five optimized variants for human and cynomolgus monkey (cyno) TIGIT were then determined by Surface Plasmon Resonance (SRP) (BIACORE™ analysis) and compared to that of their respective parental clones.
(§2) Briefly, a series S CM5 biosensor chip was activated with N-ethyl-N′-(3-dimethylaminopropyl)-carbodiimide hydrochloride (EDC) and N-hydroxysuccinimide (NHS) reagents according to the supplier's (GE Healthcare Biosciences, Piscataway, N.J.) instructions, and a human antibody capture kit was applied to couple goat anti-human Fc IgGs in order to achieve approximately 10,000 response units (RU) on each flow cell, followed by blocking un-reacted groups with 1M ethanolamine.
(§3) (flow rate: 30 μl/min) with no regeneration between injections. The sensorgrams were recorded and evaluated by BIAcore™ T200 Evaluation Software (version 2.0) after subtraction of reference cell signal. Association rates (kₒₙ) and dissociation rates (koff) were calculated using a simple one-to-one Langmuir binding model. The equilibrium dissociation constant (KD) was calculated as the ratio koff/kₒₙ.

[4] = target: T2, cynomolgus monkey (cyno) TIGIT protein; assay: SPR, captured mAb
From the text: as §1, §2, §3

human TIGIT protein [5] = target: T1, human TIGIT protein; assay: SPR, captured mAb; remark: listed apart in the source
Description: as §2, §3
(§4) The first humanized versions, h6B2, L1H1, h10A5.L1H1, h7E7, L1H1, and h15C8.L1H1, which contain both rat CDRs and framework residues at Vernier positions, and the fully humanized versions, h6B2.L2H5, h10A5.L4H4, h7E7.L5H9, and h15C8.L5H9, which contain only rat CDRs were subject to BIAcore affinity measurement by comparison with original rat antibodies, rat6B2, rat10A5, rat7E7 and rat 15C8. For binding affinity determinations of TIGIT antibodies against human TIGIT, cynomolgus monkey TIGIT and human alanine-scanned TIGIT mutants by single-cycle kinetics, Surface Plasmon Resonance (SRP) measurement with a BIACORE™-T200 instrument was used, as described above.

[6] = target: T2, cynomolgus monkey (cyno) TIGIT protein; assay: SPR, captured mAb; remark: listed apart in the source
Description: as §2, §3, §4

T2 sequence (A0A7N9I9V4 entry or part of it): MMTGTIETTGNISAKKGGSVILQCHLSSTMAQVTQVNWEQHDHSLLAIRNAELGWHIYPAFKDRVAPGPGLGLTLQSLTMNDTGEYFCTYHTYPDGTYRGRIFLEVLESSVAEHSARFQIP

B1: 7.4A3.Q1E.C96 (antibody, V domains shown)
VH: EVQLVQSGSDLKKPGASVRVSCKASGYTFTSYPMNWVRQAPGHGLEWMGWINTNTGNPTYVQGFTGRFVFSLDTSVNTAYLQISSLKAEDTAVYFCARTGGHTYDSYAFDVWGQGTMVTVSS
VL: DIQLTQSPTFLSASVGDRVTITCRASQVISSSLAWYQQNPGKAPKLLIYAASTLQSGVPSRFSGSGSGTEFTLTISSLQPEDFVTYYCQHLHGYPCNFGQGTKVEIK
notes: built from its name as 7.4A3 with Q1E in VH and C96 kept in VL
- Kd (human TIGIT protein [1]): 3450 pM
- Kd [2]: 2090 pM

B2: 7.4A3.C96Y.Q1E (antibody, V domains shown)
VH: B1 VH
VL: B1 VL with C96Y
notes: No entry is tied to this variant by name; built from 7.4A3 with the two named changes (Q1E in the heavy chain, C96Y in HVR-L3); also called 7.4A3.Q1E.C96Y
- Kd (human TIGIT protein [3]): 98000 pM
- koff (human TIGIT protein [3]): 0.0365 s⁻¹
- kon (human TIGIT protein [3]): 372000 M⁻¹ s⁻¹
- Kd [4]: 35600 pM
- koff [4]: 0.014 s⁻¹
- kon [4]: 395000 M⁻¹ s⁻¹
- Kd (human TIGIT protein [1]): 98100 pM
- Kd [2]: 35500 pM

B4: h10A5.L4H4 (antibody, V domains shown)
VH: EVTLKESGPALVKPTQTLTLTCTFSGFSLTTYGMGVSWIRQPPGKALEWLASIWWNGNTYYNPSLRSRLTITKDTSKNQVVLTMTNMDPVDTATYYCAHTGGAVITWFAYWGQGTLVTVSS
VL: EIVMTQSPATLSVSPGERATLSCKASQSVGKNIAWYQQKPGQAPRLLIYYASNRYTGIPARFSGSGSGTEFTLTISSLQSEDFAVYYCQHIYNSPYPFGQGTKVEIK
notes: Fully humanized version; FR/HVR pieces in order
- Kd (human TIGIT protein [5]): 440 pM
- koff (human TIGIT protein [5]): 0.00227 s⁻¹
- kon (human TIGIT protein [5]): 5.21e+06 M⁻¹ s⁻¹
- Kd [6]: 850 pM
- koff [6]: 0.00129 s⁻¹
- kon [6]: 1.52e+06 M⁻¹ s⁻¹

B6: 4.1A4.Q1E.C96 (antibody, V domains shown)
VH: EVQLVQSGSELKKPGASVKVSCKASGYTLTNYPMNWVRQAPGRGLEWMGWINTNTGSPAYAQDFTERFVFSLDTSVTTAYLQISSLKAEDTAVYYCARTAITSVYHFDYWGQGTLVTVSS
VL: DIQLTQSPSFLSASVGDRVTITCRASQGISSYLAWYQQKPGKAPRVLIYGATTLQSGVPSRFSGSESGTEFTLTISSLQPEDLATYYCQKLNSHPCSFGQGTKVEIK
notes: built from its name as 4.1A4 with Q1E in VH and C96 kept in VL
- Kd (human TIGIT protein [1]): 3600 pM
- Kd [2]: 2400 pM

B7: h15C8.L1H1 (antibody, V domains shown)
VH: EVQLVQSGAEVKKPGASVKVSCKASGYTFTEHSIYWLRQAPGQRLEIIGRIDPKNGRTYFVDKFKNRATLTTDTSASTAYMELSSLRSEDTAVYFCARIDGFYFDFWGQGTLVTVSS
VL: DIQLTQSPSFLSASVGDRVTITCKGSQNVNKYLVWYQQKPGKAPKLLIYSTDNLQSGIPSRFSGSGSGTEYTLTISSLQPEDFATYFCYQYNNGFTFGQGTKVEIK
notes: First humanized version; FR/HVR pieces in order; also called h1.15C8.L1H1
- Kd (human TIGIT protein [1]): 580 pM
- Kd [2]: 1390 pM
- Kd (human TIGIT protein [5]): 390 pM
- koff (human TIGIT protein [5]): 0.000357 s⁻¹
- kon (human TIGIT protein [5]): 922000 M⁻¹ s⁻¹
- Kd [6]: 940 pM
- koff [6]: 0.000464 s⁻¹
- kon [6]: 493000 M⁻¹ s⁻¹

B12: h15C8.L3H1 (antibody, V domains shown)
VH: B7 VH
VL: B7 VL with Y71F
notes: VL: Y71F against h15C8.L1H1; FR/HVR pieces
- Kd (human TIGIT protein [5]): 840 pM
- koff (human TIGIT protein [5]): 0.000533 s⁻¹
- kon (human TIGIT protein [5]): 631000 M⁻¹ s⁻¹
- Kd [6]: 1750 pM
- koff [6]: 0.000588 s⁻¹
- kon [6]: 336000 M⁻¹ s⁻¹

Continued, values first:

- Kd (human TIGIT protein [1]): 540 pM
- Kd [2]: 960 pM
- Kd (human TIGIT protein [5]): 540 pM
- koff (human TIGIT protein [5]): 0.00253 s⁻¹
- kon (human TIGIT protein [5]): 4.67e+06 M⁻¹ s⁻¹
- Kd [6]: 960 pM
- koff [6]: 0.00118 s⁻¹
- kon [6]: 1.23e+06 M⁻¹ s⁻¹
B3: h6B2.L1H1 (antibody, V domains shown)
VH: B4 VH with T30S, R66K, I71V, T75A, V80A
VL: DIQMTQSPSSLSASVGDRVTITCKASQSVGKNIAWYQQKPGKSPKLLIYYASNRYTGVPSRFSGSGSGTDFTFTISSLQPEDIATYYCQHIYNSPYPFGQGTKVEIK
notes: Humanized; FR/HVR pieces in order; also called h1.6B2.L1H1

- Kd (human TIGIT protein [1]): 520 pM
- Kd [2]: 860 pM
- Kd (human TIGIT protein [5]): 520 pM
- koff (human TIGIT protein [5]): 0.00238 s⁻¹
- kon (human TIGIT protein [5]): 4.57e+06 M⁻¹ s⁻¹
- Kd [6]: 860 pM
- koff [6]: 0.00127 s⁻¹
- kon [6]: 1.47e+06 M⁻¹ s⁻¹
B5: h10A5.L1H1 (antibody, V domains shown)
VH: B4 VH with I71V, V80A
VL: B4 VL with A43S, I58V
notes: Humanized; FR/HVR pieces in order; also called h1.10A5.L1H1

- Kd (human TIGIT protein [5]): 380 pM
- koff (human TIGIT protein [5]): 0.000421 s⁻¹
- kon (human TIGIT protein [5]): 1.12e+06 M⁻¹ s⁻¹
- Kd [6]: 1030 pM
- koff [6]: 0.000613 s⁻¹
- kon [6]: 596000 M⁻¹ s⁻¹
B8: h15C8.L5aH9a (antibody, V domains shown)
VH: B7 VH with I48M, L70I, F95Y
VL: B7 VL with I58V, F87Y
notes: Final humanized 15C8; keeps rat VH I47, L37, A67, T71 and VL Y71; FR/HVR pieces

- Kd (human TIGIT protein [1]): 330 pM
- Kd [2]: 510 pM
- Kd (human TIGIT protein [5]): 230 pM
- koff (human TIGIT protein [5]): 0.000476 s⁻¹
- kon (human TIGIT protein [5]): 2.06e+06 M⁻¹ s⁻¹
- Kd [6]: 360 pM
- koff [6]: 0.000152 s⁻¹
- kon [6]: 418000 M⁻¹ s⁻¹
B9: h7E7.L1H1 (antibody, V domains shown)
VH: B7 VH with H32Y, L37V, F60Y, T72A, A97T, D100Y
VL: B7 VL with S50N
notes: First humanized version; FR/HVR pieces in order; also called h1.7E7.L1H1

- Kd (human TIGIT protein [5]): 830 pM
- koff (human TIGIT protein [5]): 0.000562 s⁻¹
- kon (human TIGIT protein [5]): 674000 M⁻¹ s⁻¹
- Kd [6]: 2680 pM
- koff [6]: 0.000752 s⁻¹
- kon [6]: 281000 M⁻¹ s⁻¹
B10: h15C8.L5H1 (antibody, V domains shown)
VH: B7 VH
VL: B7 VL with I58V, Y71F, F87Y
notes: VL: I58V, Y71F, F87Y against h15C8.L1H1; FR/HVR pieces

- Kd (human TIGIT protein [5]): 660 pM
- koff (human TIGIT protein [5]): 0.000506 s⁻¹
- kon (human TIGIT protein [5]): 771000 M⁻¹ s⁻¹
- Kd [6]: 1000 pM
- koff [6]: 0.000502 s⁻¹
- kon [6]: 502000 M⁻¹ s⁻¹
B11: h15C8.L2H1 (antibody, V domains shown)
VH: B7 VH
VL: B7 VL with I58V
notes: VL: I58V against h15C8.L1H1; FR/HVR pieces

- Kd (human TIGIT protein [5]): 610 pM
- koff (human TIGIT protein [5]): 0.000381 s⁻¹
- kon (human TIGIT protein [5]): 620000 M⁻¹ s⁻¹
- Kd [6]: 410 pM
- koff [6]: 0.000119 s⁻¹
- kon [6]: 291000 M⁻¹ s⁻¹
B13: h15C8.L1H8 (antibody, V domains shown)
VH: B7 VH with F95Y
VL: B7 VL
notes: VH: F91Y against h15C8.L1H1; FR/HVR pieces

- Kd (human TIGIT protein [5]): 640 pM
- koff (human TIGIT protein [5]): 0.000611 s⁻¹
- kon (human TIGIT protein [5]): 955000 M⁻¹ s⁻¹
- Kd [6]: 1150 pM
- koff [6]: 0.000559 s⁻¹
- kon [6]: 485000 M⁻¹ s⁻¹
B14: h15C8.L4H1 (antibody, V domains shown)
VH: B7 VH
VL: B7 VL with F87Y
notes: VL: F87Y against h15C8.L1H1; FR/HVR pieces
